This series is described as follows: self-splicing fitness, log relative to wild type (ln ratio); higher = more splicing; Tetrahymena group I intron in knt gene, E. coli kanamycin selection, DiMSum; sequences stand for … in CUCUCU…GGAGGGAAAAGUUAUCAGGCAUGCACCUGGUAGCUAGUCUUUAAACCAAUAGAUUGCAUCGGUUUAAAAGGCAAGACCGUCAAAUUGCGGGAAAGGGGUCAACAGCCGUUCAGUACCAAGUCUCAGGGGAAACUUUGAGAUGGCCUUGCAAAGGGUAUGGUAAUAAGCUGACGGACAUGGUCCUAACCACGCAGCCAAGUCCUAAGUCAACAGAUCUUCUGUUGAUAUGGAUGCAGUUCACAGACUAAAUGUCGGUCGGGGAAGAUGUAUUCUUCUCAUAAGAUAUAGUCGGACCUCUCCUUAAUGGGAGCUAGCGGAUGAAGUGAUGCAACACUGGAGCCGCUGGGAACUAAUUUGUAUGCGAAAGUAUAUUGAUUAGUUUUGGAGUACUCGUGGUCG
The procedure, abridged:
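The eight P1ex-region nucleotides of an intron in the knt kanamycin-resistance gene on pET-22b(+) were all randomised and the library put into E. coli BL21(DE3). Six replicate transformations were grown overnight at 37°C or 30°C on LB agar with or without 25 μg/mL kanamycin, together with 100 μg/mL carbenicillin, 50 μM IPTG and 0.2% rhamnose. Colonies were pooled and amplicon-sequenced on an Illumina HiSeq 2500. Fitness from DiMSum is the error-weighted combination of wild-type-normalised replicate fold changes, kanamycin over none.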

± gives the uncertainty stated by the source.

Regarding AAGCAGCAAUAUUACGCGGU, the “self-splicing fitness (ln)” value was -3.08 ± 0.17 (30 °C) and -2.55 ± 0.23 (37 °C).

As for UACUAGCAAUAUUACGCCCA, the “self-splicing fitness (ln)” value by setting is: (30 °C) -0.901 ± 0.21; (37 °C) 0.802 ± 0.33. The like results for AAAUAGCAAUAUUACGAUGU were, in that order, -1.21 ± 0.078 and -0.875 ± 0.089. The like results for UAAAAGCAAUAUUACGUCCU were, in that order, -0.564 ± 0.095 and 0.00684 ± 0.13. The like results for CCGUAGCAAUAUUACGAAGU were, in that order, -3.05 ± 0.21 and -1.46 ± 0.31.

For the sequence AGCGAGCAAUAUUACGUAGG, the “self-splicing fitness (ln)” value is, setting by setting: (30 °C) -3.4 ± 0.35; (37 °C) -2.17 ± 0.22.

Take CGCUAGCAAUAUUACGAACU: the “self-splicing fitness (ln)” value runs as follows: (30 °C) -0.352 ± 0.12; (37 °C) -0.0958 ± 0.14. With CCGGAGCAAUAUUACGACUA, the “self-splicing fitness (ln)” value is -2.18 ± 0.45 (30 °C) and -1.88 ± 0.27 (37 °C). The corresponding values for UCGUAGCAAUAUUACGCUCU are -3.62 ± 0.32 and -0.606 ± 0.18. The like results for CUAGAGCAAUAUUACGACUU were, in that order, -4.26 ± 0.27 and -2.51 ± 0.25.

For GGCUAGCAAUAUUACGACGC, the “self-splicing fitness (ln)” value was -0.655 ± 0.41 (30 °C) and 0.803 ± 0.43 (37 °C). The like results for CACCAGCAAUAUUACGCAAU were, in that order, -4.25 ± 0.18 and -4.19 ± 0.16. The corresponding values for AGCCAGCAAUAUUACGUCUU are -1.23 ± 0.072 and -0.744 ± 0.089. The corresponding values for CCGCAGCAAUAUUACGUGUG are -3.24 ± 0.11 and -1.79 ± 0.094. Consider GAGCAGCAAUAUUACGAUAU, for which the “self-splicing fitness (ln)” value was -2.17 ± 0.13 (30 °C) and -1.17 ± 0.15 (37 °C). The corresponding values for UGAAAGCAAUAUUACGCACG are -1.4 ± 0.11 and 0.111 ± 0.13. The corresponding values for GGCCAGCAAUAUUACGCGGU are -3.63 ± 0.46 and -2.53 ± 0.34. The like results for AGAUAGCAAUAUUACGGCUG were, in that order, -0.377 ± 0.12 and -0.792 ± 0.2. As for AGAGAGCAAUAUUACGUAAC, the “self-splicing fitness (ln)” value (37 °C) is -3.26 ± 0.31. In the case of UGCGAGCAAUAUUACGAGCA, the “self-splicing fitness (ln)” value by setting is: (30 °C) -1.98 ± 0.18; (37 °C) -2.37 ± 0.22. The corresponding values for CCCUAGCAAUAUUACGGCAA are -3.66 ± 0.22 and -3.15 ± 0.18. CCUCAGCAAUAUUACGACAA: the “self-splicing fitness (ln)” value (30 °C) was -1.92 ± 0.17 and the “self-splicing fitness (ln)” value (37 °C) was -2.31 ± 0.25.

With GGGUAGCAAUAUUACGCCUA, the “self-splicing fitness (ln)” value is, setting by setting: (30 °C) 0.113 ± 0.12; (37 °C) -0.00829 ± 0.14.

Take AAAGAGCAAUAUUACGGGUU: the “self-splicing fitness (ln)” value is, setting by setting: (30 °C) -3.43 ± 0.16; (37 °C) -2.78 ± 0.21. GUUUAGCAAUAUUACGUGGG: the “self-splicing fitness (ln)” value is, setting by setting: (30 °C) -3.78 ± 0.37; (37 °C) -2.45 ± 0.23.

Turning to UUCGAGCAAUAUUACGCAUG, the “self-splicing fitness (ln)” value reads like this: (30 °C) -1.2 ± 0.23; (37 °C) -2.21 ± 0.3. The corresponding values for CCGAAGCAAUAUUACGCCUG are -1.04 ± 0.094 and -1.17 ± 0.11.

Consider ACGCAGCAAUAUUACGGGCG, for which the “self-splicing fitness (ln)” value runs as follows: (30 °C) -1.5 ± 0.063; (37 °C) -1.3 ± 0.072.

On to UCCGAGCAAUAUUACGGGCU, for which the “self-splicing fitness (ln)” value (30 °C) was -4.07 ± 0.24 and the “self-splicing fitness (ln)” value (37 °C) is -2.97 ± 0.2. The like results for CCUAAGCAAUAUUACGCCUU were, in that order, -3.22 ± 0.21 and -2.79 ± 0.26.

On to AUUGAGCAAUAUUACGCCUC, for which the “self-splicing fitness (ln)” value reads like this: (30 °C) -2.53 ± 0.48; (37 °C) -1.27 ± 0.42. As to UAUCAGCAAUAUUACGGUCC, the “self-splicing fitness (ln)” value by setting is: (30 °C) -2.18 ± 0.13; (37 °C) -0.955 ± 0.19. For UGCGAGCAAUAUUACGCCGA, the “self-splicing fitness (ln)” value (37 °C) is -1.26 ± 0.4. GUUGAGCAAUAUUACGGCGC: the “self-splicing fitness (ln)” value by setting is: (30 °C) -0.744 ± 0.18; (37 °C) -0.21 ± 0.22.

With AUAGAGCAAUAUUACGACCU, the “self-splicing fitness (ln)” value is -1.41 ± 0.23 (30 °C) and -0.988 ± 0.21 (37 °C). For CGAUAGCAAUAUUACGUCUA, the “self-splicing fitness (ln)” value (30 °C) was -1.89 ± 0.13 and the “self-splicing fitness (ln)” value (37 °C) is -0.377 ± 0.11. The like results for AAUGAGCAAUAUUACGCUUA were, in that order, -1.94 ± 0.14 and -0.919 ± 0.12. Regarding AUUUAGCAAUAUUACGCUCG, the “self-splicing fitness (ln)” value by setting is: (30 °C) -0.131 ± 0.1; (37 °C) 0.715 ± 0.15.

Source of the values: the supplement of paper PMC7877785.
